For 4 substances, Kd results are on record in patent US10004800.

One test addresses B.63521 (HIV-1). Put plainly: SPR. (Surface plasmon resonance follows binding to a sensor surface in real time, without labels.)
Another test addresses C.CH505 (HIV-1). Kind of test: SPR.

As usually defined, the Kd is the free concentration of one partner at which half of the binding sites on the other are occupied at equilibrium, for simple one-to-one binding. Read a high Kd as a looser complex. Take CH103: the Kd stood at 2.4 nM with B.63521 (HIV-1) and 20 nM with C.CH505 (HIV-1).

On to CH106, for which the Kd in the test with B.63521 (HIV-1) is 5.1 nM; with C.CH505 (HIV-1), 5.8 nM.

As to CH105, the figures for the Kd in the test with B.63521 (HIV-1) and with C.CH505 (HIV-1) were 7 nM and 7.4 nM, respectively.

Regarding CH104, the Kd with B.63521 (HIV-1) is 7.1 nM; with C.CH505 (HIV-1) it was 8.9 nM.
